Experimental data as given in patent US20190330334A1 (KAO, published 2019).
Ends that are not written are not given here.

Columns and labels:
[1] = molecular target: T1, PEGylated N-terminus 15 amino acids of active GIP (GIP(1-15)), antigen (1) for measurement (also: PEGylated, site not given here); test: ELISA, immobilized antigen, hybridoma culture supernatant
T1 construct: also called PEGylated GIP(1-15)
T1 peptide: YAEGTFISDYSIAMD
Experimental: (§1) The reaction between the hybridoma culture supernatant and the antigen (1) and (2) for measurement was evaluated by ELISA using immobilized antigen (1) and (2), and hybridomas that are positive for the antigen (1) and negative for the antigen (2) were selected as anti-active GIP monoclonal antibody-producing hybridomas.

[2] = molecular target: T2, PEGylated N-terminus 13 amino acids of inactive GIP (GIP(3-15)), antigen (2) for measurement (also: PEGylated, site not given here); test: as above
T2 construct: Immobilized on the ELISA plate; also called PEGylated GIP(3-15)
T2 peptide: EGTFISDYSIAMD
Experimental: as §1

inactive GIP, GIP(3-42) = molecular target: T3, inactive GIP, GIP(3-42); test: sandwich ELISA, anti-total GIP capture antibody, biotinylated m1 as detection antibody at 1 ug/mL
T3 peptide: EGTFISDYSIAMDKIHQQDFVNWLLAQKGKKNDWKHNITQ
Experimental: The reactivity between the monoclonal antibody prepared in Production Example 1 and active GIP was confirmed by ELISA. The amino group of the anti-active GIP monoclonal antibody was biotinylated with NH2 group biotinylation kit (manufactured by Dojindo Laboratories). ELISA was performed using the produced biotinylated anti-active GIP monoclonal antibody at 1 μg/mL instead of a detection antibody, GIP detection antibody (biotinylated anti-total GIP monoclonal antibody), included in Human (total) GIP ELISA kit (manufactured by EMD Millipore Corporation). A […] dilution series of GIP(1-42) or GIP(3-42) was prepared in 6 steps (8.2 to 2000 pg/mL) with a 2000 pg/mL solution as the highest concentration. By using an anti-total GIP monoclonal antibody (included in Human GIP (total) ELISA kit manufactured by EMD Millipore Corporation) as a capture antibody, the biotinylated anti-active GIP monoclonal antibody as a detection antibody, and a peroxidase-streptavidin conjugate for detection, sandwich ELISA was conducted to prepare a calibration curve with GIP concentration on the X-axis and 450 nm-590 nm absorbance on the Y-axis (FIG. 1).

B1: anti-active GIP monoclonal antibody produced by hybridoma 9B9H5-B9 line (Production Example 1) (antibody, V domains shown)
VH: QVQLQQPGAELVKPGASVKLSCKASGYTFTSFWMHWVIQRPGQGLEWIGEMNPSDGRTHFNEKFKTKATLTIDTSSNTAYMELNSLTSEDSAVYYCARRMEDWGQGTLVTVSA
VL: DIKMTQSPSSMYASLGERVTITCKASQDINSYLGWFQQKPGKSPKTLIYGANRLVDGVPSRFSGSGSGQDYSLTISSLEYDDMGIYYCLQYDEFPLTFGAGTKLELKR
notes: also called anti-active GIP antibody; anti-GIP antibody
[1]
  binding result: binds
[2]
  binding result: no binding
Inactive GIP, GIP(3-42)
  binding result: no binding (tested: 2000 pg/mL)
